Measurements: the supplement of paper PMC7877785
± gives the uncertainty stated by the source.

Test: self-splicing fitness, log relative to wild type (ln ratio); higher = more splicing; Tetrahymena group I intron in knt gene, E. coli kanamycin selection, DiMSum; sequences stand for … in CUCUCU…GGAGGGAAAAGUUAUCAGGCAUGCACCUGGUAGCUAGUCUUUAAACCAAUAGAUUGCAUCGGUUUAAAAGGCAAGACCGUCAAAUUGCGGGAAAGGGGUCAACAGCCGUUCAGUACCAAGUCUCAGGGGAAACUUUGAGAUGGCCUUGCAAAGGGUAUGGUAAUAAGCUGACGGACAUGGUCCUAACCACGCAGCCAAGUCCUAAGUCAACAGAUCUUCUGUUGAUAUGGAUGCAGUUCACAGACUAAAUGUCGGUCGGGGAAGAUGUAUUCUUCUCAUAAGAUAUAGUCGGACCUCUCCUUAAUGGGAGCUAGCGGAUGAAGUGAUGCAACACUGGAGCCGCUGGGAACUAAUUUGUAUGCGAAAGUAUAUUGAUUAGUUUUGGAGUACUCGUGGUCG
How it was run: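 Library with all eight P1ex-region intron nucleotides randomised, intron inside the knt kanamycin-resistance gene on pET-22b(+), in E. coli BL21(DE3). Cells grew overnight at 37°C or 30°C on LB agar with or without 25 μg/mL kanamycin (plus 100 μg/mL carbenicillin, 50 μM IPTG, 0.2% rhamnose), in six replicate transformations. Pooled colonies were amplicon-sequenced on Illumina HiSeq 2500. DiMSum fitness is the error-weighted combination of wild-type-normalised replicate fold changes, kanamycin versus none.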

Sequence | self-splicing fitness (ln) (30 °C) | self-splicing fitness (ln) (37 °C)
CUCAAGCAAUAUUACGCACA | -2.17 ± 0.34 | -2.48 ± 0.28
CUCAAGCAAUAUUACGCAUU | -3.4 ± 0.15 | -2.7 ± 0.19
CUCAAGCAAUAUUACGCCCG | -0.954 ± 0.17 | -2.11 ± 0.21
CUCAAGCAAUAUUACGCCUU | – | -3.47 ± 0.39
CUCAAGCAAUAUUACGCGCA | -2.95 ± 0.16 | -2.21 ± 0.15
CUCAAGCAAUAUUACGCUAU | -3.05 ± 0.18 | -2.17 ± 0.16
CUCAAGCAAUAUUACGGACA | -2.5 ± 0.35 | -2.1 ± 0.32
CUCAAGCAAUAUUACGGAGA | -2.83 ± 0.19 | -1.98 ± 0.15
CUCAAGCAAUAUUACGGGAC | -3.7 ± 0.33 | -2.14 ± 0.3
CUCAAGCAAUAUUACGGGAU | -3.47 ± 0.12 | -1.34 ± 0.099
CUCAAGCAAUAUUACGGUAC | – | -3.06 ± 0.37
CUCAAGCAAUAUUACGUAAG | -0.417 ± 0.054 | -0.102 ± 0.086
CUCAAGCAAUAUUACGUCAA | -4.09 ± 0.35 | -2.31 ± 0.19
CUCAAGCAAUAUUACGUCAC | -3.4 ± 0.22 | -2.7 ± 0.21
CUCAAGCAAUAUUACGUGCA | -3.43 ± 0.26 | -1.85 ± 0.19
CUCCAGCAAUAUUACGACAG | -1.4 ± 0.14 | -0.3 ± 0.14
CUCCAGCAAUAUUACGAGUA | -2.58 ± 0.16 | -2.14 ± 0.14
CUCCAGCAAUAUUACGAUAC | -3.57 ± 0.31 | -1.94 ± 0.32
CUCCAGCAAUAUUACGCACG | -1.52 ± 0.13 | -1.12 ± 0.18
CUCCAGCAAUAUUACGCAGU | -3.59 ± 0.21 | -2.04 ± 0.23

Sequence | self-splicing fitness (ln) (30 °C) | self-splicing fitness (ln) (37 °C)
CUCCAGCAAUAUUACGCCAA | – | -2.07 ± 0.27
CUCCAGCAAUAUUACGCGGC | -1.8 ± 0.26 | -2.08 ± 0.39
CUCCAGCAAUAUUACGCUAA | -3.28 ± 0.27 | -2.62 ± 0.42
CUCCAGCAAUAUUACGCUUA | -4.14 ± 0.34 | -2.49 ± 0.24
CUCCAGCAAUAUUACGGAAG | -3.34 ± 0.16 | -3.14 ± 0.24
CUCCAGCAAUAUUACGGACG | -0.729 ± 0.059 | -0.666 ± 0.09
CUCCAGCAAUAUUACGGCUC | -2.78 ± 0.23 | -1.57 ± 0.17
CUCCAGCAAUAUUACGGUAU | -4.21 ± 0.22 | -3.58 ± 0.19
CUCCAGCAAUAUUACGGUGA | -2 ± 0.099 | -1.39 ± 0.11
CUCCAGCAAUAUUACGUCCA | -3.35 ± 0.39 | -3.24 ± 0.33
CUCCAGCAAUAUUACGUCGU | -3.07 ± 0.12 | -2.72 ± 0.18
CUCCAGCAAUAUUACGUGCA | -3.43 ± 0.17 | -2.32 ± 0.13
CUCCAGCAAUAUUACGUGGG | -3.29 ± 0.11 | -2.62 ± 0.14
CUCCAGCAAUAUUACGUUAG | -2.15 ± 0.094 | -1.51 ± 0.12
CUCCAGCAAUAUUACGUUCU | -2.89 ± 0.15 | -3.65 ± 0.46
CUCCAGCAAUAUUACGUUUU | -3.38 ± 0.12 | -3.12 ± 0.15
CUCGAGCAAUAUUACGAUAA | -2.16 ± 0.36 | -2.02 ± 0.37
CUCGAGCAAUAUUACGCACU | -2.96 ± 0.3 | –
CUCGAGCAAUAUUACGGACG | -2.4 ± 0.15 | -2.25 ± 0.23
